This experiment has as its target Cryptosporidium parvum glucosamine-6-phosphate N-acetyltransferase (CpGNA1) (Cryptosporidium parvum). Put plainly: crystal structure; CpGNA1 (1.5 mg/ml) cocrystallised with 10 mM acetyl-CoA, soaked with 50 mM acetyl-CoA and 50 mM Glc6P; space group P2(1)2(1)2(1), two monomers in the asymmetric unit; 1.95 Å.

The results in this text go back to paper PMC7587441, “Plasmodium falciparum Apicomplexan-Specific Glucosamine-6-Phosphate N-Acetyltransferase Is Key for Amino Sugar Metabolism and Asexual Blood Stage Development” (mBio, 2020).

The stoichiometry N is the number of molecules, sites or subunits per partner or assembly. Substance “Cryptosporidium parvum glucosamine-6-phosphate N-acetyltransferase (CpGNA1) (enzyme)” registered a stoichiometry N of 2.
